The source of these data is PMC3906316 (Journal of Medicinal Chemistry, 2013).

This assay has as its target bromodomain of CREB (cyclic-AMP response element binding) binding protein (UniProt Q92793-1). Nature of the assay: AlphaScreen or HTRF. Conditions: both partners purified.

Sequence of bromodomain of CREB (cyclic-AMP response element binding) binding protein (Q92793 1081-1197): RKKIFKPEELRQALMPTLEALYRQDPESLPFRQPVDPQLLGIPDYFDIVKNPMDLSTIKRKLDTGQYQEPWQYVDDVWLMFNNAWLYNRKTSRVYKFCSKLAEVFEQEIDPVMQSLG

In the case of ALREIRRYQKSTELLIRKLK (K(Ac) at peptide position 10 (H3K56); C-terminal K(Biotin)) [H3K56(Ac) peptide], the binding result is listed as “binds”.
